Results from paper PMC6150488 (Cell reports, 2018).

Target: glycogen-synthase kinase 3β (GSK3β) (UniProt P49841 1-420)
Assay: SPR

Kd: 165 nM
B1: Nav1.6 C-terminal tail (domain or fragment)
chain: LENFSVATEESADPLSEDDFETFYEIWEKFDPDATQFIEYCKLADFADALEHPLRVPKPNTIELIAMDLPMVSGDRIHCLDILFAFTKRVLGDSGELDILRQQMEERFVASNPSKVSYEPITTTLRRKQEEVSAVVLQRAYRGHLARRGFICKKTTSNKLENGGTHREKKESTPSTASLPSYDSVTKPEKEKQQRAEEGRRERAKRQKEVRESKC
